According to patent US20150315606:

What was measured:
[1] = target: T1, synthetic fluorogenic EPF1 peptide
T1 chain: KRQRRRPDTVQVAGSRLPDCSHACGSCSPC

[2] = target: T2, synthetic EPF2 peptide (synEPF2), 30 AA partial EPF2 peptide spanning the predicted cleavage site, Dabcyl-SKNGGVEMEMYPTGSSLPDCSYACGACSPC-Glu(EDANS)
T2 chain: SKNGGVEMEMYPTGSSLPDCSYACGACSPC

B1: SDD1 protease, STREPII tagged, synthesized in the SP6-TNT wheat germ system (protein)
chain: MEPKPFFLCIIFLLFCSSSSEILQKQTYIVQLHPNSETAKTFASKFDWHLSFLQEAVLGVEEEEEEPSSRLLYSYGSAIEGFAAQLTESEAEILRYSPEVVAVRPDHVLQVQTTYSYKFLGLDGFGNSGVWSKSRFGQGTIIGVLDTGVWPESPSFDDTGMPSIPRKWKGICQEGESFSSSSCNRKLIGARFFIRGHRVANSPEESPNMPREYISARDSTGHGTHTASTVGGSSVSMANVLGNGAGVARGMAPGAHIAVYKVCWFNGCYSSDILAAIDVAIQDKVDVLSLSLGGFPIPLYDDTIAIGTFRAMERGISVICAAGNNGPIESSVANTAPWVSTIGAGTLDRRFPAVVRLANGKLLYGESLYPGKGIKNAGREVEVIYVTGGDKGSEFCLRGSLPREEIRGKMVICDRGVNGRSEKGEAVKEAGGVAMILANTEINQEEDSIDVHLLPATLIGYTESVLLKAYVNATVKPKARIIFGGTVIGRSRAPEVAQFSARGPSLANPSILKPDMIAPGVNIIAAWPQNLGPTGLPYDSRRVNFTVMSGTSMSCPHVSGITALIRSAYPNWSPAAIKSALMTTADLYDRQGKAIKDGNKPAGVFAIGAGHVNPQKAINPGLVYNIQPVDYITYLCTLGFTRSDILAITHKNVSCNGILRKNPGFSLNYPSIAVIFKRGKTTEMITRRVTNVGSPNSIYSVNVKAPEGIKVIVNPKRLVFKHVDQTLSYRVWFVLKKKNRGGKVASFAQGQLTWVNSHNLMQRVRSPISVTLKTN
- synthetic peptide and protease fluorogenic cleavage assay [1]: EPF1 cleavage by both SDD1 and CRSP shows low affinity

B2: CO2-regulated secreted subtilisin-like serine protease (CRSP), STREP II-tagged, synthesized in vitro in the wheat germ system (protein)
chain: MKGITFFTPFLSFLYLLCILFMTETEAGSRNGDGVYIVYMGSASSAANANRAQILINTMFKRRANDLLHTYKHGFSGFAARLTAEEAKVIAKKPGVVSVFPDPHFQLHTTHSWDFLKYQTSVKVDSGPPSSASDGSYDSIVGILDTGIWPESESFNDKDMGPIPSRWKGTCMEAKDFKSSNCNRKIIGARYYKNPDDDSEYYTTRDVIGHGSHVSSTIAGSAVENASYYGVASGTAKGGSQNARIAMYKVCNPGGCTGSSILAAFDDAIADGVDVLSLSLGAPAYARIDLNTDPIAIGAFHAVEQGILVICSAGNDGPDGGTVTNTAPWIMTVAANTIDRDFESDVVLGGNKVIKGEGIHFSNVSKSPVYPLIHGKSAKSADASEGSARACDSDSLDQEKVKGKIVLCENVGGSYYASSARDEVKSKGGTGCVFVDDRTRAVASAYGSFPTTVIDSKEAAEIFSYLNSTKDPVATILPTATVEKFTPAPAVAYFSSRGPSSLTRSILKPDITAPGVSILAAWTGNDSSISLEGKPASQYNVISGTSMAAPHVSAVASLIKSQHPTWGPSAIRSAIMTTATQTNNDKGLITTETGATATPYDSGAGELSSTASMQPGLVYETTETDYLNFLCYYGYNVTTIKAMSKAFPENFTCPADSNLDLISTINYPSIGISGFKGNGSKTVTRTVTNVGEDGEAVYTVSVETPPGFNIQVTPEKLQFTKDGEKLTYQVIVSATASLKQDVFGALTWSNAKYKVRSPIVISSESSRTN
- MALDI-TOF-MS hits of cleavage fragment SKNGGVEMEMYPTGS (SEQ ID NO:131) [2]: (5 hits)
- MALDI-TOF-MS hits of cleavage fragment SKNGGVEMEMYPTGSSL (SEQ ID NO:130) [2]: (3 hits)
- MALDI-TOF-MS hits of cleavage fragment SKNGGVEMEMYPTGSSLPD (SEQ ID NO:129) [2]: (14 hits)
- MALDI-TOF-MS hits of the uncleaved 30 aa peptide [2]: The 30 aa, full length, uncleaved peptide was also seen (14 hits)
- synthetic peptide and protease fluorogenic cleavage assay [2]: EPF2 cleavage sample traces indicate that EPF2 cleavage by CRSP could be specific (compared with SDD1)
- synthetic peptide and protease fluorogenic cleavage assay [1]: EPF1 cleavage by both SDD1 and CRSP shows low affinity
